From patent EP4624486A1 (Guangdong Raynovent Biotech Co., Ltd., dated 2025)
Bridge positions count the residues as written; N and C are the ends. Square brackets hold non-standard residues; d marks the D form. Ends that are not written are not given here. αMeF = C[C@](N)(Cc1ccccc1)C(=O)O; αMeL = CC(C)C[C@](C)(N)C(=O)O; Aib = CC(C)(N)C(=O)O

Columns and labels:
Assay in all cases: cell-based or functional assay
GCG receptor (GCGR) = GCG receptor (GCGR) (UniProt P47871 26-477, limits assumed)
GLP-1 receptor (GLP-1R) = GLP-1 receptor (GLP-1R) (UniProt P43220 24-463, limits assumed)
GIP receptor (GIPR) = molecular target: T1, GIP receptor (GIPR) (UniProt P48546 22-466, limits assumed)
T1 sequence (looked up): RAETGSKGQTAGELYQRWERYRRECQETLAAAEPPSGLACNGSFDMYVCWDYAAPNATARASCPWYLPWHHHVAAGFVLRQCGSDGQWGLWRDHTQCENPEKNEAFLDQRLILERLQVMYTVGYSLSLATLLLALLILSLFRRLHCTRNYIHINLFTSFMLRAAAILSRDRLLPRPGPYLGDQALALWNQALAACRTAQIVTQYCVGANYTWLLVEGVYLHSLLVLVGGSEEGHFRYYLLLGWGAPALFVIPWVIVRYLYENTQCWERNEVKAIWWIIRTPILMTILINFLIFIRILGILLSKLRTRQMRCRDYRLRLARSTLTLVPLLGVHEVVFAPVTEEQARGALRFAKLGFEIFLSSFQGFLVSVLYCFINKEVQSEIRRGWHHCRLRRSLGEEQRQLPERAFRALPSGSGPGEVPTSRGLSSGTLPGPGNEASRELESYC

Sequence of GCG receptor (GCGR) (P47871 26-477 limits assumed): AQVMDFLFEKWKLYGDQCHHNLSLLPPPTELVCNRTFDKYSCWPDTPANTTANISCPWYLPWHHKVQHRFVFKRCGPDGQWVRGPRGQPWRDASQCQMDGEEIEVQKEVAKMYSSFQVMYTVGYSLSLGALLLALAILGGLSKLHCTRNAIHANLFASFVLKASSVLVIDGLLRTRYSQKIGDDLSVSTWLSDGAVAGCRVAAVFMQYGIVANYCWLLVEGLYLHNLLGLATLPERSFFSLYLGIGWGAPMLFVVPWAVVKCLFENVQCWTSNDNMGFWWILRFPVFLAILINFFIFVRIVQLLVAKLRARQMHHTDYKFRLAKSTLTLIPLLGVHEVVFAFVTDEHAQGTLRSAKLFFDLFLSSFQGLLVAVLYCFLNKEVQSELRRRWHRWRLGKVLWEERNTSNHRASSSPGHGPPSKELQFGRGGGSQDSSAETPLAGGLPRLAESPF

Binder	GCG EC50 (nM); cAMP, agonistic activity (GCG receptor (GCGR))	GLP-1 EC50 (nM); cAMP, agonistic activity (GLP-1 receptor (GLP-1R))	GIP-1 EC50 (nM); cAMP, agonistic activity (GIP receptor (GIPR))
Y[Aib]QGTFTSDYSI[αMeL]KDKKAQ[Aib]AFIEYLLKGGPSSGAPPPS-NH2 (linker 14-17 via Ida, Lys, Lys, γGlu, C20 diacid; also: further groups not given here) [Example 41]	0.015 nM	0.003 nM	0.0003 nM
Y[Aib]QGTFTSDYSI[αMeL]LDKKAQ[Aib]KFIEFLIEGGPSSGAPPPS-NH2 (linker 17-21 via Ida, Lys, Lys, γGlu, C20 diacid) [Example 23]	0.096 nM	0.007 nM	0.0004 nM
Y[Aib]QGTFTSDYSI[αMeL]KDKKAQ[Aib]AFIQYLLEGGPSSGAPPPS-NH2 (bridge 14-17; not fully specified (bridges); also: stapled body (lipidated) structure only in drawing chem0245) [Example 42]	0.025 nM	0.007 nM	0.0005 nM
Y[Aib]QGTFTSDYSI[αMeL]KDKKAQ[Aib]AFIEYLLKGGPSSGAPPPS-NH2 (linker 14-17 via (2-2-oxoethyl)‑glycine, AEEA, γGlu, C20 diacid) [Example 38]	0.018 nM	0.002 nM	0.0002 nM
Y[Aib]QGT[αMeF]TSDYSI[αMeL]KDKKAQ[Aib]AFIEYLLKGGPSSGAPPPS-NH2 (bridge 14-17; not fully specified (bridges); also: stapled body (lipidated) structure only in drawing chem0260) [Example 51]	0.025 nM	0.001 nM	0.0002 nM
Y[Aib]QGTFTSDYSI[αMeL]LDKKAQ[Aib]KFIEFLLKGGPSSGAPPPS-NH2 (linker 21-28 via Ida, Lys, Lys, γGlu, C20 diacid; also: further groups not given here) [Example 26]	0.11 nM	0.014 nM	0.0005 nM
Y[Aib]QGTFTSDYSI[αMeL]KDKKAQ[Aib]AFIEYLLEGGPSSGAPPPS-NH2 (bridge 14-17; not fully specified (bridges); also: stapled body (lipidated) structure only in drawing chem0251) [Example 45]	0.029 nM	0.005 nM	0.0001 nM
Y[Aib]QGTFTSDYSK[αMeL]LDKKAQ[Aib]AFIEFLLEGGPSSGAPPPS-NH2 (linker 12-16 via Ida, Lys, Lys, γGlu, C20 diacid; also: further groups not given here) [Example 28]	0.11 nM	0.011 nM	0.0008 nM
Y[Aib]QGTFTSDYSI[αMeL]LDKKAQ[Aib]KFIEYLLEGGPSSGAPPPS-NH2 (linker 17-21 via (2-2-oxoethyl)‑glycine, AEEA, AEEA, γGlu, C20 diacid) [Example 1]	0.024 nM	0.009 nM	0.001 nM
